One experiment has as its target HLA-A*02:06. Description: IEDB peptide-MHC binding, purified MHC/competitive/radioactivity; filed as Kd, often an IC50 or EC50 that approximates it; ≥ and ≤ were set here for values at or beyond the usual limits of such assays.
The target of another experiment is HLA-A*02:02. Described as above.
In another experiment the target is HLA-A*68:02. Described as above.
Another experiment deals with HLA-A*02:03. The experiment is described as above.
The next experiment has as its target HLA-B*51:01. The description is as above.
In another experiment the target is HLA-B*44:03. The experiment is described as above.
Another experiment has as its target HLA-B*44:02. The description is as above.
In a further experiment the target is HLA-A*30:01. The description is as above. The settings on record: source organism: Vaccinia virus WR.
The target of the next experiment is HLA-A*24:02. Kind of experiment: IEDB peptide-MHC binding, purified MHC/competitive/fluorescence; ≥ and ≤ were set here for values at or beyond the usual limits of such assays.
In a further experiment the target is HLA-A*11:01. Kind of experiment: IEDB peptide-MHC binding, purified MHC/direct/fluorescence; filed as Kd, often an IC50 or EC50 that approximates it; ≥ and ≤ were set here for values at or beyond the usual limits of such assays. The settings on record: source organism: Campylobacter jejuni RM1221.
The next experiment has as its target HLA-A*03:01. The description is as above. The settings on record: source organism: Campylobacter jejuni RM1221.
In a further experiment the target is HLA-B*53:01. Description: IEDB peptide-MHC binding, purified MHC/competitive/radioactivity; filed as Kd, often an IC50 or EC50 that approximates it; ≥ and ≤ were set here for values at or beyond the usual limits of such assays.
The target of the next experiment is HLA-A*02:01. Description: IEDB peptide-MHC binding, purified MHC/competitive/fluorescence; ≥ and ≤ were set here for values at or beyond the usual limits of such assays.
For a further experiment, the target named is HLA-B*40:01. Description: IEDB peptide-MHC binding, purified MHC/direct/fluorescence; filed as Kd, often an IC50 or EC50 that approximates it; ≥ and ≤ were set here for values at or beyond the usual limits of such assays. As to conditions: source organism: Mycobacterium tuberculosis variant bovis.
The target of the next experiment is HLA-A*26:01. Kind of experiment: IEDB peptide-MHC binding, purified MHC/competitive/radioactivity; filed as Kd, often an IC50 or EC50 that approximates it; ≥ and ≤ were set here for values at or beyond the usual limits of such assays.
The next experiment deals with HLA-A*32:01. Described as above.
[1] abbreviates: source organism: Lymphocytic choriomeningitis virus (strain Armstrong) (clone 53b).
Setting [2] is: source organism: Dengue virus 3 Martinique/1243/1999.
[3] abbreviates: source organism: Dengue virus 2 Jamaica/1409/1983.
Setting [4] is: source organism: Zaire ebolavirus.
Where [5] appears, read: source organism: Dengue virus 2 Peru/IQT2913/1996.
[6] abbreviates: source organism: Vaccinia virus WR.
[7] abbreviates: source organism: Dengue virus 4 Philippines/H241/1956.
[8] abbreviates: source organism: Trypanosoma cruzi.
[9] abbreviates: source organism: Sudan ebolavirus.
[10] abbreviates: source organism: Lassa virus Josiah.

Some results are limits rather than exact numbers.

The values that follow come from the Immune Epitope Database (IEDB).

SLNQTVHSL: the Kd with HLA-A*02:06 (setting [1]) was at least 28100 nM; in the experiment with HLA-A*02:02 (setting [1]) it was 1.9 nM; with HLA-A*68:02 (setting [1]), 16100 nM; in the experiment with HLA-A*02:03 (setting [1]) it was 2.4 nM.
With LAGVSLLPV, the Kd in the experiment with HLA-B*51:01 (setting [2]) came out at 1910 nM.
As for EEREIPERSW, the figures for the Kd with HLA-B*44:03 (setting [3]) and with HLA-B*44:02 (setting [3]) were 242 nM and 66.5 nM, respectively.
With AVKDVTITK, in the experiment with HLA-A*30:01, the Kd turned out to be 2.16 nM.
On to PLNDNIATLL, for which, in the experiment with HLA-A*68:02 (source organism: Homo sapiens), the Kd was 7440 nM.
For HYWTTQDEG, in the experiment with HLA-A*24:02 (setting [4]), the IC50 amounted to 42800 nM.
As for KVSDSNLHK, the Kd in the experiment with HLA-A*11:01 was 4.6 nM; in the experiment with HLA-A*03:01, 190 nM.
Regarding LPVWLAYKV, the Kd with HLA-B*53:01 (setting [5]) stood at 157 nM; in the experiment with HLA-B*51:01 (setting [5]), 515 nM.
As to KFMSNGEHV, the figures for the IC50 with HLA-A*24:02 (setting [6]) and with HLA-A*02:01 (setting [6]) were 4440 nM and 27700 nM, respectively.
In the experiment with HLA-B*40:01, AEQIVLGVI displayed a Kd of 61.1 nM.
As for AEIPLQWIA, the Kd in the experiment with HLA-B*44:03 (setting [2]) is 634 nM; with HLA-B*44:02 (setting [2]), 68.6 nM.
With YAPFARLLN, the IC50 was 19300 nM with HLA-A*24:02 (setting [4]) and at least 87800 nM in the experiment with HLA-A*02:01 (setting [4]).
Regarding LLEGEEERL, the Kd in the experiment with HLA-A*02:06 (source organism: Homo sapiens) was at least 20500 nM; with HLA-A*68:02 (source organism: Homo sapiens) it was at least 136000 nM.
In the case of MTAGIFLFFM, the values for the Kd in the experiment with HLA-A*26:01 (setting [7]) and with HLA-A*68:02 (setting [7]) were 15.9 nM and 10.4 nM, respectively.
Take GLLPSLLLLL: the Kd is 7.28 nM with HLA-A*02:06 (setting [8]), 3.06 nM with HLA-A*02:02 (setting [8]), at least 33000 nM in the experiment with HLA-A*68:02 (setting [8]) and 1.83 nM in the experiment with HLA-A*02:03 (setting [8]).
The sequence PFDAVLYYH yielded an IC50 with HLA-A*24:02 (setting [4]) of 4690 nM.
Turning to FSGKGPLRMV, in the experiment with HLA-B*51:01 (setting [7]), the Kd was at least 38000 nM.
Take EPPFGESYI: the Kd in the experiment with HLA-B*51:01 (source organism: Dengue virus 1 Brazil/97-11/1997) was found to be 13800 nM.
FTMTHRRPTI: the Kd in the experiment with HLA-A*02:06 (setting [2]) was 647 nM; with HLA-B*51:01 (setting [2]), at least 20400 nM; with HLA-A*68:02 (setting [2]), 114 nM.
Turning to ITLVVISVI, the Kd in the experiment with HLA-A*02:06 (setting [6]) was 1030 nM; with HLA-A*02:02 (setting [6]), 15100 nM; in the experiment with HLA-A*32:01 (setting [6]), at least 35300 nM; with HLA-A*02:03 (setting [6]) it was 1810 nM.
For the sequence CVIASSGMLW, the figures for the Kd with HLA-A*26:01 (setting [2]) and with HLA-B*53:01 (setting [2]) were 1220 nM and 22.2 nM, respectively.
As to VEPGQLKLNW, the Kd came to 63.2 nM in the experiment with HLA-B*44:03 (setting [3]) and 389 nM with HLA-B*44:02 (setting [3]).
Regarding QTQSRPIQN, in the experiment with HLA-A*24:02 (setting [4]), the IC50 was at least 128000 nM.
On to TTELRTFSI, for which the IC50 with HLA-A*24:02 (setting [4]) was determined as 12200 nM; in the experiment with HLA-A*02:01 (setting [4]), 68300 nM.
Take VNNLEHGLF: the IC50 with HLA-A*24:02 (setting [4]) was found to be 25400 nM.
For TLYAVATTI, the values for the Kd with HLA-A*32:01 (setting [7]) and with HLA-A*02:03 (setting [7]) were 356 nM and 11.2 nM, respectively.
As to LPMTVAAMG, the Kd in the experiment with HLA-B*53:01 (source organism: Dengue virus 3 Sri Lanka/1266/2000) came out at 3540 nM.
For the sequence LLGLWGLATA, the Kd with HLA-A*02:06 (setting [8]) worked out at 57.9 nM; with HLA-A*02:02 (setting [8]), 1.69 nM; in the experiment with HLA-A*68:02 (setting [8]), 407 nM; with HLA-A*02:03 (setting [8]), 1.39 nM.
Sequence AFHKDGAFF gave an IC50 in the experiment with HLA-A*24:02 (setting [9]) of 9670 nM.
IEKTKTDFGF: the Kd in the experiment with HLA-B*44:02 (setting [7]) came out at 1730 nM.
Consider AEPIDIQTW, for which the Kd in the experiment with HLA-B*44:03 (source organism: Homo sapiens) was 66 nM.
Take LIALSVLAV: the Kd with HLA-A*02:06 (setting [10]) amounted to 336 nM; with HLA-A*02:02 (setting [10]) it was 117 nM; in the experiment with HLA-A*68:02 (setting [10]), 323 nM; with HLA-A*02:03 (setting [10]), 2.63 nM.
AEAIFKLTY: the Kd is 34.7 nM with HLA-B*44:03 (setting [3]) and 3.67 nM with HLA-B*44:02 (setting [3]).
Turning to GAFFLYDRL, the IC50 with HLA-A*24:02 (setting [9]) is at least 122000 nM; with HLA-A*02:01 (setting [9]) it was at least 158000 nM.
AELEDGAYRI: the Kd with HLA-B*44:03 (setting [3]) was 17.9 nM; in the experiment with HLA-B*44:02 (setting [3]), 16 nM.

A word on the Kd: it is the constant that tells how readily two partners part at equilibrium. The IC50 is the concentration at which inhibition is half-maximal.
